This note sets out measurements from US20140275490A1 (Astellas, published 2014).

As a reminder, the EC50 is the midpoint of the concentration-response curve.

The target of assay [1] is T1, monkey IL-23R-mouse Fc fusion protein (monkey; mouse).
T1 construct: extracellular domain; also called monkey IL-23R-Fc fusion protein
The experiment in a line: antigen ELISA, monkey IL-23R-Fc immobilized, HRP anti-human IgG, chemiluminescence. The protocol:
(§1) The present inventors used an antigen ELISA to measure the antigen-specific binding activities of the fully human antibodies constructed in Example 6. A human or monkey IL-23R-Fc fusion protein was immobilized onto a Maxisorp 384-well plate (Nunc, Inc.) at a concentration of 500 ng/mL. A blocking agent (Blocking One; Nacalai Tesque, Inc.) was added thereto and allowed to stand at room temperature for 1 hour, followed by washing twice with a wash buffer [TPBS: 0.05% Tween-20-containing phosphate buffered saline (PBS)], and each of the purified antibody samples was suitably serially diluted and added thereto. Incubation was performed at room temperature for 1 hour, followed by washing four times with TPBS, and HRP-labeled anti-human IgG antibody (DAKO) which was 2000-fold diluted with dilution buffer was added as secondary antibody. Incubation was performed at room temperature for 1 hour, followed by washing four times with a washing buffer. A BM-chemiluminescence ELISA substrate (POD) (Roche Diagnostics) that is a reagent for detecting chemiluminescence was added thereto and the amount of chemiluminescence was measured with an EnVision counter (Perkin Elmer). Each of the antibodies was tested in duplicate, and the EC 50 was analyzed by curve fitting.
On the technique in general: ELISA stands for enzyme-linked immunosorbent assay.

Assay [2] addresses T2, human IL-23R-mouse Fc fusion protein (human; mouse, UniProt Q5VWK5 24-353).
T2 construct: Expressed in FreeStyle 293 cells, purified; immobilized on the ELISA plate at 500 ng/mL; also called human IL-23R-Fc fusion protein; not shown: Fc region of mouse immunoglobulin (IgG2a) as encoded by the vector pFUSE-mIgG2A-Fc2 (InvivoGen); limits and any linker r
T2 sequence: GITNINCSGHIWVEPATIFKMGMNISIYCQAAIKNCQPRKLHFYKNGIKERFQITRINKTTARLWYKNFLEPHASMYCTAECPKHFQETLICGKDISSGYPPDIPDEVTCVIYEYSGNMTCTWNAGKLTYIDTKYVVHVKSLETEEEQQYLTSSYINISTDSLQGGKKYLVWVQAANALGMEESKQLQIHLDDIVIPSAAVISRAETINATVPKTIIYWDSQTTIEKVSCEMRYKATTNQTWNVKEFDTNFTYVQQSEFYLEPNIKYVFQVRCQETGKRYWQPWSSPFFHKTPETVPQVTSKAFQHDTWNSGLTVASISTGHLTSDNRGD
The experiment in a line: antigen ELISA, human IL-23R-Fc immobilized, HRP anti-human IgG, chemiluminescence. The protocol:
as §1

Assay [3] has as its target T3, human IL-23R (human, UniProt Q5VWK5 24-629).
T3 sequence: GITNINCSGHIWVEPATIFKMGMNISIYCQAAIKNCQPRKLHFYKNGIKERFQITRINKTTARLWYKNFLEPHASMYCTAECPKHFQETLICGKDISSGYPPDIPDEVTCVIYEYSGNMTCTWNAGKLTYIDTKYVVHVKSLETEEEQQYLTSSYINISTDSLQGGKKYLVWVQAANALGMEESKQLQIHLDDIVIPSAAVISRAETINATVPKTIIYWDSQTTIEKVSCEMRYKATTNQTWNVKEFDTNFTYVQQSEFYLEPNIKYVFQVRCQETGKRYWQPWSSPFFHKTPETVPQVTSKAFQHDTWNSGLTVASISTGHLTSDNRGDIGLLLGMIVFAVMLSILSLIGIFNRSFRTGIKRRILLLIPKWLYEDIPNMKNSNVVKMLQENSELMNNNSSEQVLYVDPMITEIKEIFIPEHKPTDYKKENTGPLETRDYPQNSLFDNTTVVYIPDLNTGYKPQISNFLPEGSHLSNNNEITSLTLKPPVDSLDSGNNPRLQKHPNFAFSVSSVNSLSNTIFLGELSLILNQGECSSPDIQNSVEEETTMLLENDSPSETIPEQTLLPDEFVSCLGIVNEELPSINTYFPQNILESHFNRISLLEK
Kind of assay: cell-based or functional assay.

Assay [4] concerns the target T3, human IL-23R. The experiment in a line: cell-based or functional assay. The source holds these as a separate data set.
Assay [5] concerns the target T1, monkey IL-23R-mouse Fc fusion protein. The experiment in a line: antigen ELISA, monkey IL-23R-Fc immobilized, HRP anti-mouse Ig, chemiluminescence. Here is the method: (§2) The present inventors used an antigen ELISA to measure the antigen-specific binding activity of the antibody. The human or monkey IL-23R-Fc fusion protein was immobilized onto a Maxisorp 384-well plate (Nunc, Inc.) at a concentration of 500 ng/mL. A blocking agent (Blocking One; Nacalai Tesque, Inc.) was added thereto and allowed to stand at room temperature for 1 hour, followed by washing twice with a wash buffer [TPBS: a phosphate buffered saline (PBS) containing 0.05% Tween-20], and the purified antibody samples were suitably serially diluted and added thereto. Incubation was performed at room temperature for 1 hour, followed by washing four times with TPBS, and HRP-rabbit anti-mouse Ig antibody (DAKO) which was 2000-fold diluted with a dilution buffer was added. Incubation was performed at room temperature for 1 hour, followed by washing four times with a wash buffer. A BM-chemiluminescence ELISA substrate (POD) (Roche Diagnostics), which is a reagent for detecting chemical luminescence, was added, and the amount of chemiluminescence was measured with an EnVision counter (Perkin Elmer). Each antibody was tested in duplicate and the EC50 was analyzed by curve fitting. In this test, a fusion antibody obtained by replacing the Fc region of the known humanized anti-human IL-23R antibody hum20D7 (patent document 1) with the mouse Fc region (hereinafter referred to as hum20D7-mFc) was used as a comparative antibody. Also, the reason why the hum20D7 was fused with the mouse Fc region to prepare a fusion protein was to use anti-mouse Ig antibody as secondary antibody, and the mouse Fc region could be recognized by the anti-mouse Ig antibody, thereby rendering it possible to measure activity.

Assay [6] addresses T2, human IL-23R-mouse Fc fusion protein. Kind of assay: antigen ELISA, human IL-23R-Fc immobilized, HRP anti-mouse Ig, chemiluminescence. The protocol: as §2

B1: fully human antibody 30-15 (antibody, human IgG1, kappa, V domains shown)
VH: QVQLVQSGAEVKKPGASMKVSCKVSGYTLNELSIHWVRQAPGKGLEWMGGFDPEHGETVYAQNFQDRVTLTEDTSTDTSYMGLNNLRSDDTAVYYCAAESYGDYEFWGQGTLVTVSS
VL: DIQMTQSPSSVSASVGDRVTITCRASQGINNWLAWYQQKPGKAPKVLIYTASSLQSGVPSRFSGSGSGTDFTLTISSLQPEDFATYYCQQANSHPWTFGQGTKVEIKR
notes: Human Ig gamma1 / human kappa constant regions; also called 30-15 (fully human); fully human 30-15 antibody
As for B1, the EC50 in assay [1] stood at 0.0076 µg/mL; in assay [2] it was 0.0118 µg/mL. Further, the “IC50, inhibition of human IL-23-inducible Kit-225 cell proliferation” value (“IC50, inhibition” below) with human IL-23R [3] turned out to be 0.0014 µg/mL. Moreover, the “IC50, IL-23-stimulated STAT3 phosphorylation in CD4 lymphocytes of human whole blood” value (“IC50 … of human whole blood” below) in the assay with human IL-23R [4] turned out to be 0.013 µg/mL.

B2: 30-16 (chimeric) (antibody, V domains shown)
VH: QVQVVQSGAEVKKPGASVKVSCKVSGYTLIELAIHWVRQVPGKGLEWMGGFDPEHGETIYAQKFQGRVTMTEDTSTDTAYMELNNLRSEDTAVYYCAILEAGDLDCWGQGTLVTVSS
VL: DIQMTQSPSSVSASVGDRVTITCRASQGISNWLAWYQQKPGKAPKVLIYTASSLQSGVPSRFSGSGSGTDFTLTVSGLQPEDFGTYYCQQANSFPFTFGPGTKVDIKR
In the case of B2, the EC50 in assay [5] is 0.069 µg/mL; in assay [6], 0.019 µg/mL.

B3: fully human antibody 30-16 (antibody, human IgG1, kappa, V domains shown)
VH: QVQVVQSGAEVKKPGASVKVSCKVSGYTLIELAIHWVRQVPGKGLEWMGGFDPEHGETIYAQKFQGRVTMTEDTSTDTAYMELNNLRSEDTAVYYCAILEAGDLDCWGQGTLVTVSS
VL: DIQMTQSPSSVSASVGDRVTITCRASQGISNWLAWYQQKPGKAPKVLIYTASSLQSGVPSRFSGSGSGTDFTLTVSGLQPEDFGTYYCQQANSFPFTFGPGTKVDIKR
notes: Human Ig gamma1 / human kappa constant regions; also called 30-16 (fully human); fully human 30-16 antibody
Consider B3, for which the values for the EC50 in assay [1] and in assay [2] were 0.0108 µg/mL and 0.0165 µg/mL, respectively. The “IC50, inhibition” value with human IL-23R [3] was 0.0023 µg/mL. Also, in the assay with human IL-23R [4], the “IC50 … of human whole blood” value stood at 0.0045 µg/mL.

B4: 30-15 (chimeric) (antibody, V domains shown)
VH: QVQLVQSGAEVKKPGASMKVSCKVSGYTLNELSIHWVRQAPGKGLEWMGGFDPEHGETVYAQNFQDRVTLTEDTSTDTSYMGLNNLRSDDTAVYYCAAESYGDYEFWGQGTLVTVSS
VL: DIQMTQSPSSVSASVGDRVTITCRASQGINNWLAWYQQKPGKAPKVLIYTASSLQSGVPSRFSGSGSGTDFTLTISSLQPEDFATYYCQQANSHPWTFGQGTKVEIKR
For the molecule B4, the EC50 is 0.016 µg/mL in assay [5] and 0.017 µg/mL in assay [6].

B5: fully human antibody 30-18 (antibody, human IgG1, kappa, V domains shown)
VH: QVQLVQSGAEVKKPGASVKVSCKVSGYTLNELSIHWVRQAPGKGLEWMGGFDPEHSETLYAQNFQDRLTLTEDTSTETACMELNSLRSDDTAVYYCAAESYGDYEFWGQGTLVTVSS
VL: DIQMTQSPSSVSASVGDRVTITCRASQDISSWLAWYQQKPGKAPKVLIYTASSLQSGVPSRFSGSGSGTDFTLTISSLQPEDFATYYCQQANSHPWTFGQGTKVEIKR
notes: Human Ig gamma1 / human kappa constant regions; also called 30-18 (fully human); fully human 30-18 antibody
On to B5, for which the EC50 in assay [1] is 0.0084 µg/mL; in assay [2], 0.0136 µg/mL. For the same molecule, the “IC50, inhibition” value in the assay with human IL-23R [3] worked out at 0.0033 µg/mL.

B6: fully human antibody 25-3 (antibody, human IgG1, kappa, V domains shown)
VH: QVQLQESGPGQVKPSQTLSLTCSVSGGSIDSGDHYWTWIRQHPGEVLEWIGYIYSSGHTYYSPSLKSRLTMSLDTSKNQFSLRLSSVTAADTAVYYCARVGDYEWFDTWGQGTLVTVSS
VL: DIVMTQSPDSLAVSLGERATINCKSSQTILYPSNNMNYLGWYQQRAGQSPRLLIYWASTRESGVPDRFSGSGSGTDFTLTISSLQAEDVAVYYCQQYYSSLPTFGQGTKVEIKR
notes: Human Ig gamma1 / human kappa constant regions; also called 25-3 (fully human); fully human 25-3 antibody
In the case of B6, the EC50 was 0.0112 µg/mL in assay [1] and 0.0195 µg/mL in assay [2]. The “IC50, inhibition” value with human IL-23R [3] came out at 0.0035 µg/mL. In the assay with human IL-23R [4], the “IC50 … of human whole blood” value amounted to 0.0007 µg/mL.

B7: 25-3 (chimeric) (antibody, V domains shown)
VH: QVQLQESGPGQVKPSQTLSLTCSVSGGSIDSGDHYWTWIRQHPGEVLEWIGYIYSSGHTYYSPSLKSRLTMSLDTSKNQFSLRLSSVTAADTAVYYCARVGDYEWFDTWGQGTLVTVSS
VL: DIVMTQSPDSLAVSLGERATINCKSSQTILYPSNNMNYLGWYQQRAGQSPRLLIYWASTRESGVPDRFSGSGSGTDFTLTISSLQAEDVAVYYCQQYYSSLPTFGQGTKVEIKR
With B7, the EC50 in assay [5] is 0.028 µg/mL; in assay [6], 0.021 µg/mL.

B8: fully human antibody 32-36 (antibody, human IgG1, kappa, V domains shown)
VH: QVQMVQSGAEVKRPGASVKVSCKVSGYTLNELGIHWVRQAPGKGLEWMGGFDPEHGKIIYAQRFQGRLTMPEDTSTDTAYMELSSLTSEDTAVYYCATVAAPLDYWGQGTLVTVSS
VL: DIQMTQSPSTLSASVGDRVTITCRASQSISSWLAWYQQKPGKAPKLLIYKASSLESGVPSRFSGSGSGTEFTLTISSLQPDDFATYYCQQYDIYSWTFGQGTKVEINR
notes: Human Ig gamma1 / human kappa constant regions; also called 32-36 (fully human); fully human 32-36 antibody
For B8, the EC50 in assay [1] turned out to be 0.0331 µg/mL; in assay [2], 0.0218 µg/mL. The “IC50, inhibition” value with human IL-23R [3] turned out to be 0.0067 µg/mL. Besides, in the assay with human IL-23R [4], the “IC50 … of human whole blood” value turned out to be 0.0082 µg/mL.

B9: fully human antibody 32-28 (antibody, human IgG1, kappa, V domains shown)
VH: QVHLVQSGTEVRKPGASVKVSCKVSGYTLNELAIHWVRQAPGKGLEWMGGFDPEHGEIIYAQRFQGRVTLPEDTSTDTAYLDLFNLRSEDTAVYFCATEAAPFDYWGQGTLVIVSS
VL: DIQMTQSPSTLSASVGDRVTITCRASQSLSSWLAWYQQKPGKAPKLLIYKASSLESGVPSRFSGSGSGTDFTLTISSLQPDDFATYYCQQYDIYPRTFGQGTKVEIKR
notes: Human Ig gamma1 / human kappa constant regions; also called 32-28 (fully human); fully human 32-28 antibody
With B9, the EC50 was 0.0171 µg/mL in assay [1] and 0.0131 µg/mL in assay [2]. In the assay with human IL-23R [3], the “IC50, inhibition” value is 0.0014 µg/mL. Further, the “IC50 … of human whole blood” value in the assay with human IL-23R [4] came out at 0.00016 µg/mL.

B10: fully human antibody 34-58 (antibody, human IgG1, kappa, V domains shown)
VH: QVHLVQSGTEVRKPGASVKVSCKVSGYTLNELAIHWVRQAPGKGLEWMGGFDPEHGEIIYAQRFQGRITLPEDTSTDTAYMDLVNLRSEDTAVYFCTTEAAPFDYWGQGSLVIVSS
VL: DIQMTQSPSTLSASVGDRVTITCRASQSLSNWLAWYQQKPGKAPKLLIYKASSLESGVPSRFSGSGSGTDFTLTISGLQPDDFATYYCQQYDIYPRTFGQGTKVEIKR
notes: Human Ig gamma1 / human kappa constant regions; also called 34-58 (fully human); fully human 34-58 antibody
Regarding B10, the EC50 in assay [1] came out at 0.0148 µg/mL; in assay [2] it was 0.0146 µg/mL. In addition, in the assay with human IL-23R [3], the “IC50, inhibition” value amounted to 0.0037 µg/mL. The “IC50 … of human whole blood” value with human IL-23R [4] amounted to 0.00051 µg/mL.
